Our source for the Kd values is patent publication US20240141048A1 (published 2024).

Test in all cases: BLI
A general note: In BLI a coated tip is dipped into the sample, and binding shifts an interference pattern.

The target in assay [1] is T1, His-tagged cynomolgus VISTA extracellular domain protein (in house) (cynomolgus, UniProt A0A7N9IB00 33-194).
T1 chain: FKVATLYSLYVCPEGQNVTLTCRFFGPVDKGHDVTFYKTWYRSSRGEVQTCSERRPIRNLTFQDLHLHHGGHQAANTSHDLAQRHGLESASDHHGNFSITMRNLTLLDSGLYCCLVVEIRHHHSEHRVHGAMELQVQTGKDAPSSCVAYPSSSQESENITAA

For assay [2], the target named is T2, His-tagged human VISTA extracellular domain protein (in house) (UniProt Q9H7M9 33-194).
T2 sequence (Q9H7M9 33-194): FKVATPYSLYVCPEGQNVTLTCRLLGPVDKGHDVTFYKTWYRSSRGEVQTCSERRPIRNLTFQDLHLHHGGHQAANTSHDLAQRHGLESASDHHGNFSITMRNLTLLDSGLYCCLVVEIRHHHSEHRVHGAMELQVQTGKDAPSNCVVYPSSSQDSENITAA
For assay [3], the target named is T1, His-tagged cynomolgus VISTA ….
Assay [4] concerns the target T2, His-tagged human VISTA extracellular …. This is another data set of the same source.
The target in assay [5] is T1, His-tagged cynomolgus VISTA ….
The target in assay [6] is T2, His-tagged human VISTA extracellular …. This is another data set of the same source.
The target of assay [7] is T1, His-tagged cynomolgus VISTA ….
The target of assay [8] is T2, His-tagged human VISTA extracellular …. The source holds these as a separate data set.
Assay [9] has as its target T1, His-tagged cynomolgus VISTA ….
Assay [10] deals with T2, His-tagged human VISTA extracellular …. This is another data set of the same source.

Where two headings read alike, the source gives them in different places.

B1: anti-VISTA antibody 20E4 (antibody, V domains shown)
VH: QVQLQQSGAELMKPGASVKISCKATGYTFSSSWVEWVRQRPGHGLEWIGEIFPGSGSTHYNEKFKGKATFTADTSSNTAYLQLSSLTSDDSAVYYCARRPPGWFFDVWGAGTTVTVSS
VL: DIVMTQSHKFMSTSVGDRVSITCKASQDVSTDVAWYQQKPGQSPKLLIYSASYRYTGVPDRFTGSGSGTDFTFTISSVQAEDLAVYYCQQHYSTPWTFGGGTKLEIK
Regarding B1, the Kd (usually a measure of binding affinity in units of concentration) in assay [1] amounted to 6.53 nM; in assay [2] it was 0.011 nM.

B2: anti-VISTA antibody 16A1 (antibody, V domains shown)
VH: QVQLQQSGAELMKPGASVKISCKATGYTFSSSWIEWVKQRPGHGLEWIGEIFPGSGSLNFNEKFKGKATFTADTSSNTAYLQLSSLTSDDSAVYYCARRPPGWFFDVWGAGTTVTVSS
VL: DIVMTQSHKFMSTSVGDRVSITCKASQDVTTDVAWYQQKPGQSPKLLIYSASYRYTGVPDRFTGSGSGTDFTFTISSVQAEDLTVYYCQQHYSSPWTFGGGTKLEIK
Take B2: the Kd came out at 2.57 nM in assay [3] and 0.00278 nM in assay [4].

B3: anti-VISTA antibody 17E9 (antibody, V domains shown)
VH: QVQLQQSGAELMKPGASVKISCTATGYTFSSCWIEWVKQRPGHGLEWLGEILPGSDYTNYNEKFKDKATFTADTSSDTAYMQLSSLTSEDSAVYYCARRPPGWYFDVWGAGTAVTVSS
VL: DIVMTQSHKFMSTSVGDRVSITCKASQDVSTDIAWYQQKPGQSPKLLIYSASYRFTGVPDRFTGSGSGTDFTFTISSVQAEDLAVYYCQHQYSTPWTFGGGTKLDIK
Take B3: the Kd in [5] stood at 3.35 nM; in assay [6] it was 0.00421 nM.

B4: anti-VISTA antibody 15D11 (antibody, V domains shown)
VH: EVQLQQSGSELVKAGASVKLSCTASGFKIKDTFIHWVKQRPEQGLDWIGRIDPANGNSKYDPKFQGKATITADTSSNTAYLQLSSLTSEDTAVYYCARWPSNWEAMDYWGQGTSVTVSS
VL: QIVLTQSPAIMSASPGEKVTMTCSASSSVSYMYWYQQKPGSSPRLLIYDTSNLASGVPFRFSGSGSGTSYSLTISRMEAEDAATYYCQQWISYPLTFGTGTKLELK
For B4, the Kd worked out at 0.00583 nM in assay [7] and 12.5 nM in assay [8].

B5: anti-VISTA antibody 9F9 (antibody, V domains shown)
VH: QVQFQQSGAELARPGASVKLSCKASGYTFTGYWMQWVKQRPGQGLEWIGAIYPGDGDTRYSQKFKGKVTLTADKSSSTAYMQLSSLASEDSAVYYCARRDYGAWFAYWGQGTLVTVSA
VL: DIKVTQSPSSMYASLGERVTITCKASQDINSYLSWFQQKPGKSPKTLIYRANRLVDGVPSRFSGSGSGQDYSLTISSLDYEDMGIYYCLQYDEFPYTFGGGTKLEIK
Consider B5, for which the Kd in [9] came out at 7.37 nM; in [10], 2.45 nM.
